Test results: patent US9486502B2, “Methods of administering interferon gamma to absorb fluid from the subretinal space” (The United States of America, as represented by the …, priority 2008, dated 2016)

What was measured:
hfRPE cells = test: BrdU incorporation assay, hfRPE proliferation; assay type: cell-based, human; settings: data not shown
Method: BrdU incorporation was performed as described in Li, R. et al., 2007, Invest Ophthalmol Vis Sci, 48, 5722-5732, incorporated by reference in its entirety herein. IFNγ, TNFα, and IL-1β were obtained from Peprotech, Rocky Hill, N.J., and Universal Type I Interferon (cat: 11200-1) or human interferon beta la were from PBL biomedical laboratories (New Brunswick, N.J.). Cumulative effects were measured by adding VEGF165, EGF and bFGF (Peprotech), and PDGF-BB (R & D Systems) with IFNγ. Anti-human IFNγ R1 blocking antibody (R & D Systems, Minneapolis, Minn.), JAK inhibitor I, AG490, or JAK3 inhibitor II (EMD Biosciences, Gibbstown, N.J.) was added to the cells one hour prior to the addition of IFNγ. SFM was used as the negative control and SFM supplemented with 5% serum was used as positive control. After treatment for 48 hours, RPE cells were incubated with BrdU for 24 hours. The proliferation rate was evaluated using a Cell proliferation ELISA BrdU Kit (Roche, Ind.). Quadruplicate wells were used for each condition and the experiments were repeated at least two times using cell cultures from different donors. Cell viability was evaluated using a Live/Dead Viability/Cytotoxicity Kit (Invitrogen).

[1] = multiple instillations per day for months; literature; cited from earlier work
[2] = Phase I study of topical interferon gamma-1b in CME secondary to uveitis (OCT macular thickness); assay type: in vivo, human; settings: patients with CME secondary to uveitis, topical instillation(s), OCT post-instillation
Excerpt: To test whether cystoid macular edema (CME), secondary to uveitis, is caused by the disequilibrium of the Jak/Stat and mTor signal transduction pathways in the retinal pigment epithelium (RPE), interferon gamma-1β topically applied in human patients. Five participants with CME secondary to uveitis receive a topical ocular instillation of interferon gamma-1b in a Phase I, non-randomized, prospective, uncontrolled, dose-escalation, single-center study. The study involves a one-time instillation or series of instillations of interferon gamma-1b on the cornea and measurement of a response with optical coherence tomography (OCT) over a three hour period.
A 25% decrease in macular thickness is observed at a post-instillation as compared to baseline. In the study, the first two participants receive one instillation (each instillation contains […] in 0.05 mL solution) on the cornea at time zero, the next two participants receive two instillations, 10 minutes apart, for a total dosage of 20 μg, and the final participant receives three instillations, 10 minutes apart, for a total of 30 μg. OCT will be obtained at −60 minutes, −30 minutes and just before the instillation(s). […]
Participants with CME secondary to uveitis are treated with ocular instillation(s) of interferon gamma-1b. […] The effect on the retinal thickness is measured using OCT measurements as indicated below. […]

Molecule | effect of type I IFN on hfRPE proliferation (hfRPE cells) | side effects reported from topical administration [1] | decrease in (central) macular thickness versus baseline [2]
IFNα | no effect | follicular conjunctivis and conjunctival injection | 
interferon gamma-1b: biologic response modifier, single chain polypeptide containing 140 amino acids (Actimmune®) (protein, UniProt P01579 24-161, looked up, interferon gamma-1b) Interferon gamma: QDPYVKEAENLKKYFNAGHSDVADNGTLFLGILKNWKEESDRKIMQSQIVSFYFKLFKNFKDDQSIQKSVETIKEDMNVKFFNSNKKKRDDFEKLTNYSVTDLNVQRKAIHELIQVMAELSPAAKTGKRKRSQMLFRG |  |  | 25%
